What all share (experiment): fluorescence polarisation
A general note: Polarisation of emitted light reports the rotation of a fluorescent probe.

Test [1] has as its target human mitochondrial Hsp70 (mtHsp70), wild-type (human, UniProt P38646 47-679).
Test [2] addresses human mtHsp70 R126W PD variant (human, UniProt P38646 47-679, R126W).
The target of test [3] is human mtHsp70 P509S PD variant (human, UniProt P38646 47-679, P509S).

Where no end group is shown, it is not given here.

A word on the Kd: it is a measure of binding affinity in units of concentration.

human mtHsp70 P509S PD variant, sequence (P38646 47-679 P509S): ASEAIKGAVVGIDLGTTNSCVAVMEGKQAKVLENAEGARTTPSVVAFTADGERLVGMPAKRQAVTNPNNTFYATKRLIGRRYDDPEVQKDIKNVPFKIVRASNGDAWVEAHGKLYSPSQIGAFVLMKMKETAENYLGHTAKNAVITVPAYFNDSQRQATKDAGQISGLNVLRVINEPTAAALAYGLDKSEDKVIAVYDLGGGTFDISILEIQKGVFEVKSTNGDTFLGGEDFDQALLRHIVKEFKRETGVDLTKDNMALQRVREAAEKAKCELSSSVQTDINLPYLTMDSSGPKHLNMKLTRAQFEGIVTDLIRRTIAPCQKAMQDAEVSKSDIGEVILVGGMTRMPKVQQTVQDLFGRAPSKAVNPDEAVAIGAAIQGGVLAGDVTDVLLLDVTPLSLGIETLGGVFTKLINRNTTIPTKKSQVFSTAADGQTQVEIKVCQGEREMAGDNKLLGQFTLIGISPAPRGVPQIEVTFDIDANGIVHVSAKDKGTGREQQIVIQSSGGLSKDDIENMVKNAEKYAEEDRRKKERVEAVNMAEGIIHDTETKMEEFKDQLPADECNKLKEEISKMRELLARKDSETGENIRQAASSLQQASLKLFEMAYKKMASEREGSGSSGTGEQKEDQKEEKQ
human mtHsp70 R126W PD variant, sequence (P38646 47-679 R126W): as the sequence (P38646 47-679 P509S) above, with R80W, S463P counted along it
human mitochondrial Hsp70 (mtHsp70), wild-type, sequence (P38646 47-679): as the sequence (P38646 47-679 P509S) above, with S463P counted along it

Regarding ALLLSAPRR (also: fluorescein label, position not given here) [fluorescein-labeled P5 peptide (F-P5)], the dissociation constant Kd in test [1] amounted to 15.6 ± 1.4 µM; in test [2] it was 13.6 ± 2.7 µM; in test [3], 15.7 ± 1.9 µM.

For the origin of these results see article PMC3392108 (Human Molecular Genetics, 2012).
